Results reported in article PMC10720262, “Molecular determinants of cross-reactivity and potency by VH3-33 antibodies against the Plasmodium falciparum circumsporozoite protein” (Cell Reports, 2023).

Assays:
[1] = target: mAb 317; test: SPR
[2] = target: mAb CIS43; test: SPR
[3] = target: mAb 317; test: SPR; Carterra LSA; mAb amine-coupled to a CMD200M chip, peptide titrated in 2-fold steps up to 8 ug/mL without regeneration; 25 C; HBSTE (10 mM HEPES pH 7.4, 150 mM NaCl, 3 mM EDTA, 0.01% Tween 20); 1:1 Langmuir model; mean of triplicates; KD includes avidity for antigens with several repeats
[4] = target: mAb CIS43; test: as above

Chain of mAb 317 (heavy, as listed by the source, chain 1 of 2): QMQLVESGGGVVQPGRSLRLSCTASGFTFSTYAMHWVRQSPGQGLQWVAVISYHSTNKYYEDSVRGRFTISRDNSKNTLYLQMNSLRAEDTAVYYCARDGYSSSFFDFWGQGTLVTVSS
Chain of mAb 317 (light, as listed by the source, chain 2 of 2): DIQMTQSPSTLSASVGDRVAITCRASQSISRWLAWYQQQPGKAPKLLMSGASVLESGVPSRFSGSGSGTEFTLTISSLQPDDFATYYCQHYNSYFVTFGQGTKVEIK
Chain of mAb CIS43 (heavy, as listed by the source, chain 1 of 2): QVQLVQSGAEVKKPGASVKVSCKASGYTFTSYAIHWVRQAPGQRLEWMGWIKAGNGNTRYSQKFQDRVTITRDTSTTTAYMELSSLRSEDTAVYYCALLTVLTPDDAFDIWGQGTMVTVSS
Chain of mAb CIS43 (light, as listed by the source, chain 2 of 2): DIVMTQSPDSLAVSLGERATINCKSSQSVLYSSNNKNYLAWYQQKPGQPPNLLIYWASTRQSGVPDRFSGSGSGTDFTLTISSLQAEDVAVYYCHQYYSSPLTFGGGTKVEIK

NANP3 peptide gave a Kd [1] of 16.6 nM, a koff [1] of 0.0206 s⁻¹ and a kon [1] of 1.24e+06 M⁻¹ s⁻¹. It also gave a Kd [2] of 1720 nM.

For NPDP peptide, the Kd [3] was 4560 nM, the koff [3] was 0.0454 s⁻¹ and the kon [3] was 10000 M⁻¹ s⁻¹. It also gave a Kd [4] of 19.1 nM, a koff [4] of 0.00216 s⁻¹ and a kon [4] of 113000 M⁻¹ s⁻¹.

For NPNA3 peptide, the Kd [3] was 7.03 nM, the koff [3] was 0.00138 s⁻¹ and the kon [3] was 197000 M⁻¹ s⁻¹. For the same substance, the Kd [4] was 9430 nM, the koff [4] was 0.0706 s⁻¹ and the kon [4] was 7940 M⁻¹ s⁻¹.
